Measured values as given in article PMC9253114, “Structures and gating mechanisms of human bestrophin anion channels” (Nature Communications, 2022).

B1: bBest2_(1–345) (domain or fragment, bovine, UniProt E1BF86 1-345, looked up)
chain: MTVTYTARVAKARFGGFSKLLLLWRGSIYKLLWRELLCFLGLFMALSAAYRFVLTEEQKRYFEKLVLYCDRYASLIPVSFVLGFYVTLVVHRWWNQYLSMPLTDALMCVVVGTVHGHDERGRLYRRTLMRYAGLSGVLILRSVSTAVFKRFPTIDHVVEAGFMTREERKKFENLNSSYNKYWVPCVWFCNLAAQARREGRIRDNGAFKLLLEELNVFRSKCGMLFHYDWISVPLVYTQVVTIAVYSYFLACLIGRQFLDPAQGYKDHDLDLCVPIFTLLQFFFYAGWLKVAEQLINPFGEDDDDFETNFLIDRCFQVSMLAVDEMYDDLAMLEKDLYWDAAEARA
notes: PDB 6VX7 is the cited earlier bBest2 structure, another construct; also called bBEST2 345; AS truncated bovine Best2; source: HEK293-F cells, Bacmam system, purified (GDN extraction, Ni-NTA, TEV cleavage, gel filtration)
B2: wild-type human bestrophin-1 (natural protein)
chain: MTITYTSQVANARLGSFSRLLLCWRGSIYKLLYGEFLIFLLCYYIIRFIYRLALTEEQQLMFEKLTLYCDSYIQLIPISFVLGFYVTLVVTRWWNQYENLPWPDRLMSLVSGFVEGKDEQGRLLRRTLIRYANLGNVLILRSVSTAVYKRFPSAQHLVQAGFMTPAEHKQLEKLSLPHNMFWVPWVWFANLSMKAWLGGRIRDPILLQSLLNEMNTLRTQCGHLYAYDWISIPLVYTQVVTVAVYSFFLTCLVGRQFLNPAKAYPGHELDLVVPVFTFLQFFFYVGWLKVAEQLINPFGEDDDDFETNWIVDRNLQVSLLAVDEMHQDLPRMEPDMYWNKPEPQPPYTAASAQFRRASFMGSTFNISLNKEEMEFQPNQEDEEDAHAGIIGRFLGLQSHDHHPPRANSRTKLLWPKRESLLHEGLPKNHKAAKQNVRGQEDNKAWKLKAVDAFKSAPLYQRPGYYSAPQTPLSPTPMFFPLEPSAPSKLHSVTGIDTKDKSLKTVSSGAKKSFELLSESDGALMEHPEVSQVRRKTVEFNLTDMPEIPENHLKEPLEQSPTNIHTTLKDHMDPYWALENRDEAHS
notes: human bestrophin-1 (hBest1), wild type; also called hBest1; WT hBest1; source: HEK293-F cells, Bacmam system, purified (GDN extraction, Ni-NTA, TEV cleavage, gel filtration)
B3: wild-type human bestrophin-2 (natural protein, UniProt Q8NFU1 1-509, looked up)
chain: MTVTYTARVANARFGGFSQLLLLWRGSIYKLLWRELLCFLGFYMALSAAYRFVLTEGQKRYFEKLVIYCDQYASLIPVSFVLGFYVTLVVNRWWSQYLCMPLPDALMCVVAGTVHGRDDRGRLYRRTLMRYAGLSAVLILRSVSTAVFKRFPTIDHVVEAGFMTREERKKFENLNSSYNKYWVPCVWFSNLAAQARREGRIRDNSALKLLLEELNVFRGKCGMLFHYDWISVPLVYTQVVTIALYSYFLACLIGRQFLDPAQGYKDHDLDLCVPIFTLLQFFFYAGWLKVAEQLINPFGEDDDDFETNFLIDRNFQVSMLAVDEMYDDLAVLEKDLYWDAAEARAPYTAATVFQLRQPSFQGSTFDITLAKEDMQFQRLDGLDGPMGEAPGDFLQRLLPAGAGMVAGGPLGRRLSFLLRKNSCVSEASTGASCSCAVVPEGAAPECSCGDPLLDPGLPEPEAPPPAGPEPLTLIPGPVEPFSIVTMPGPRGPAPPWLPSPIGEEEENLA
notes: human bestrophin-2 (hBest2), wild type; also called hBest2; WT hBest2; source: HEK293-F cells, Bacmam system, purified (GDN extraction, Ni-NTA, TEV cleavage, gel filtration)
B4: hBest1_(1–345) (domain or fragment, human, UniProt O76090 1-345, looked up)
chain: MTITYTSQVANARLGSFSRLLLCWRGSIYKLLYGEFLIFLLCYYIIRFIYRLALTEEQQLMFEKLTLYCDSYIQLIPISFVLGFYVTLVVTRWWNQYENLPWPDRLMSLVSGFVEGKDEQGRLLRRTLIRYANLGNVLILRSVSTAVYKRFPSAQHLVQAGFMTPAEHKQLEKLSLPHNMFWVPWVWFANLSMKAWLGGRIRDPILLQSLLNEMNTLRTQCGHLYAYDWISIPLVYTQVVTVAVYSFFLTCLVGRQFLNPAKAYPGHELDLVVPVFTFLQFFFYVGWLKVAEQLINPFGEDDDDFETNWIVDRNLQVSLLAVDEMHQDLPRMEPDMYWNKPEPQP
notes: also called hBEST1 345; AS truncated hBest1; source: HEK293-F cells, Bacmam system, purified (GDN extraction, Ni-NTA, TEV cleavage, gel filtration)

Tests used:
[1] = target: the molecule itself; assay: cryo-EM structure; single-particle cryo-EM of purified truncated channel (residues 1-345) in GDN, in the presence of 5 mM Ca2+; C5 symmetry refinement
[2] = target: the molecule itself; assay: cryo-EM structure; single-particle cryo-EM of purified channel in GDN (200 mM NaCl, 40 mM HEPES pH 7.8, 0.005% GDN); without Ca2+ (EGTA) or after a 30 s spike of 1 uM or 5 mM Ca2+; C5 symmetry refinement

Protein	binding result [1]	stoichiometry N [2]
B1	binds	–
B2	–	5
B3	–	5
B4	binds	–
